PMC5447866 (Oncogene, 2016)

Target: His6-tagged UBR5 recombinant protein (UniProt O95071 1-2799)
Experiment: pull-down

Sequence of His6-tagged UBR5 recombinant protein (O95071 whole entry): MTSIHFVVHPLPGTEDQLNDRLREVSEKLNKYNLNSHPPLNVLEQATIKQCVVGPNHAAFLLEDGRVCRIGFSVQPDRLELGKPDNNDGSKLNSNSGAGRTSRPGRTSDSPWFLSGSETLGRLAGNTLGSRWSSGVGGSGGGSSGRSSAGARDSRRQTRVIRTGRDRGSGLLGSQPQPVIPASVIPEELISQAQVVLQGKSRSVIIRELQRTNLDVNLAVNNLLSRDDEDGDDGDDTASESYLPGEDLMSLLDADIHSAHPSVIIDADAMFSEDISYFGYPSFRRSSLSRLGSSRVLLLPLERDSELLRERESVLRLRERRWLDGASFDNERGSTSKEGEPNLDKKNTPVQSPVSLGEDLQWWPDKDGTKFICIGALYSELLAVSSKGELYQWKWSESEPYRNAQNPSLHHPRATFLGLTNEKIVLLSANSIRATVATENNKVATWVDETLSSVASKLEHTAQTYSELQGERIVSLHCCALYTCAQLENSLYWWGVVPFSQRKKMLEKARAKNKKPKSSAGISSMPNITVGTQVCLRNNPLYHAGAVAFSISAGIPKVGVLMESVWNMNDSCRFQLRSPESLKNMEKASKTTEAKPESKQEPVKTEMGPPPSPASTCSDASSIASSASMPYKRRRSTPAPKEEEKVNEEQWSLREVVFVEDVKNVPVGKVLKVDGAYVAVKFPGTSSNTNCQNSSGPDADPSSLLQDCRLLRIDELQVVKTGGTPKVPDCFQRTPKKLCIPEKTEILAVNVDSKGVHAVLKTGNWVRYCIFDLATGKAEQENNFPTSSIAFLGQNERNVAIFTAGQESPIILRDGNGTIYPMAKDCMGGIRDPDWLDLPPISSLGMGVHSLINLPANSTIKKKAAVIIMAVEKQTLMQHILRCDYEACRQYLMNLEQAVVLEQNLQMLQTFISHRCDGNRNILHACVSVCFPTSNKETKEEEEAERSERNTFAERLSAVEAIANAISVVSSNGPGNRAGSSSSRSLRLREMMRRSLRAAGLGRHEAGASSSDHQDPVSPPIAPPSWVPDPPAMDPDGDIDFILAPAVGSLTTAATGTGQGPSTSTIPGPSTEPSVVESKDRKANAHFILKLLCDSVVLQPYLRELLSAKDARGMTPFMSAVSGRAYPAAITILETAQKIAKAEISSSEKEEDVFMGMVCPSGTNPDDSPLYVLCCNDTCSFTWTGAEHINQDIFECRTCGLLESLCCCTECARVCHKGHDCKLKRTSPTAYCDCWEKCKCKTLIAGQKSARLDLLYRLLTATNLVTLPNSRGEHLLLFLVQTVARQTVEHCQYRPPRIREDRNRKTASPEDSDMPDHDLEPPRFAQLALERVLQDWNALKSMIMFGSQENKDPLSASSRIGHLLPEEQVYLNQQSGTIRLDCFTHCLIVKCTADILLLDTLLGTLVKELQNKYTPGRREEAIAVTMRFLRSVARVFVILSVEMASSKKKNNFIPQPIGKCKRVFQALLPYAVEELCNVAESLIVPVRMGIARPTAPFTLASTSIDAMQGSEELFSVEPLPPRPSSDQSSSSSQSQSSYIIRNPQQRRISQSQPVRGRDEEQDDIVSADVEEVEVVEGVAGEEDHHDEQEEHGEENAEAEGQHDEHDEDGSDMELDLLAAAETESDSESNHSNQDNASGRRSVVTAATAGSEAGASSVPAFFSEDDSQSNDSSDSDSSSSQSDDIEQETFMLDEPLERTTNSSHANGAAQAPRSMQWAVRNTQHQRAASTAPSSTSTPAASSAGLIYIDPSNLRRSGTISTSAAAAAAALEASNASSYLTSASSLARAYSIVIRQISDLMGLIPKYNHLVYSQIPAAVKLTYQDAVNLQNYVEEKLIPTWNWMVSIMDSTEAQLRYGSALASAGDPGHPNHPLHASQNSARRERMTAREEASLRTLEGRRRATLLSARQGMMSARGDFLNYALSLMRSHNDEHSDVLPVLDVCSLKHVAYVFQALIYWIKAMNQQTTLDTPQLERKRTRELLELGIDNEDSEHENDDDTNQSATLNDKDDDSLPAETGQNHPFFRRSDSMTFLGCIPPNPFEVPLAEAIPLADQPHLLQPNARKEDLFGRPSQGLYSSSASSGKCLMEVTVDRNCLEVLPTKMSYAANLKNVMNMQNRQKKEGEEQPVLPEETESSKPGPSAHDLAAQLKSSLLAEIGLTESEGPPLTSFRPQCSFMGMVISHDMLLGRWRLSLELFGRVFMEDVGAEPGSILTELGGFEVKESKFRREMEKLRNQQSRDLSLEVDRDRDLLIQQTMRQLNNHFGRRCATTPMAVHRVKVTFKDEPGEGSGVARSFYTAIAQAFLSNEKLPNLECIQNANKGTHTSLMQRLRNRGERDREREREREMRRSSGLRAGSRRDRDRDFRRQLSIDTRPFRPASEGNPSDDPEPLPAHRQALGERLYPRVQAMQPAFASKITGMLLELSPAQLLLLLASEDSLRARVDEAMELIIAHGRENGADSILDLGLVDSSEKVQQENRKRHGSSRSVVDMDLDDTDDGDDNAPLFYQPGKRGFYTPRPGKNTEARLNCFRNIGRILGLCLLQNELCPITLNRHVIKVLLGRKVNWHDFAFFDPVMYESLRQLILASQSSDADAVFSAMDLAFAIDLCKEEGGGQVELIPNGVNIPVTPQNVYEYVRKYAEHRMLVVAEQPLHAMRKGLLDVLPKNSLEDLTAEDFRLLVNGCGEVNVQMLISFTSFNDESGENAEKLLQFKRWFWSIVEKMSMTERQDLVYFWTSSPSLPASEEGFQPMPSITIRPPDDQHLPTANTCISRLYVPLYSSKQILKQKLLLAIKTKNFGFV

B1: GST-tagged MOAP-1 recombinant protein (natural protein, UniProt Q96BY2 1-351, looked up)
chain: MTLRLLEDWCRGMDMNPRKALLIAGISQSCSVAEIEEALQAGLAPLGEYRLLGRMFRRDENRKVALVGLTAETSHALVPKEIPGKGGIWRVIFKPPDPDNTFLSRLNEFLAGEGMTVGELSRALGHENGSLDPEQGMIPEMWAPMLAQALEALQPALQCLKYKKLRVFSGRESPEPGEEEFGRWMFHTTQMIKAWQVPDVEKRRRLLESLRGPALDVIRVLKINNPLITVDECLQALEEVFGVTDNPRELQVKYLTTYQKDEEKLSAYVLRLEPLLQKLVQRGAIERDAVNQARLDQVIAGAVHKTIRRELNLPEDGPAPGFLQLLVLIKDYEAAEEEEALLQAILEGNFT
Q: Does B1 bind?
A: Result: binds
